From the supplement of paper PMC9112550, “Optimization of the antimicrobial peptide Bac7 by deep mutational scanning” (BMC Biology, 2022) come the findings set out here.

This data set concerns Escherichia coli TOP10. As to the kind of experiment: shrunken log2 fold change of peptide-encoding DNA abundance (4.5 h post-induction vs induction); higher = less antimicrobial activity (less host growth inhibition). The conditions noted are these: time post-induction: 4.5 h; library: site-saturation at positions 5, 18, 19, 20.
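Note: peptides expressed intracellularly from a pBAD plasmid library in pooled LB shake-flask culture, induced with 0.3% L-arabinose, DNA abundance read by NGS, three biological replicates, DESeq2 with apeglm shrinkage.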

On to RRIRHRPPRLPRPRPRPQNAPRP, for which the “shrunken log2 fold change” value was -0.135.

Regarding RRIRQRPPRLPRPRPRPPHSPRP, the “shrunken log2 fold change” value was found to be 0.511.

Consider RRIRDRPPRLPRPRPRPYEHPRP, for which the “shrunken log2 fold change” value is 0.077.

As for RRIRFRPPRLPRPRPRPRVKPRP, the “shrunken log2 fold change” value is -0.154.

For the sequence RRIRIRPPRLPRPRPRPRSPPRP, the “shrunken log2 fold change” value is 0.0527.

On to RRIRNRPPRLPRPRPRPYHAPRP, for which the “shrunken log2 fold change” value is -0.0081.

RRIRLRPPRLPRPRPRPIGRPRP: the “shrunken log2 fold change” value was determined as 0.0169.

With RRIRARPPRLPRPRPRPWSWPRP, the “shrunken log2 fold change” value was determined as 0.109.

Turning to RRIRDRPPRLPRPRPRPWVNPRP, the “shrunken log2 fold change” value turned out to be 0.0215.

Turning to RRIRGRPPRLPRPRPRPTLWPRP, the “shrunken log2 fold change” value turned out to be 1.27.

In the case of RRIRDRPPRLPRPRPRPFCMPRP, the “shrunken log2 fold change” value was 0.00343.

For the sequence RRIRSRPPRLPRPRPRPCGCPRP, the “shrunken log2 fold change” value was -0.00437.

With RRIRERPPRLPRPRPRPHQHPRP, the “shrunken log2 fold change” value was -0.449.

For the sequence RRIRPRPPRLPRPRPRPCILPRP, the “shrunken log2 fold change” value was -1.04.

RRIRRRPPRLPRPRPRPWDWPRP: the “shrunken log2 fold change” value came out at 0.428.

Turning to RRIRYRPPRLPRPRPRPKWRPRP, the “shrunken log2 fold change” value stood at 0.0685.

For the sequence RRIRSRPPRLPRPRPRPMDPPRP, the “shrunken log2 fold change” value was found to be 0.00928.

For RRIRMRPPRLPRPRPRPPSIPRP, the “shrunken log2 fold change” value was determined as 0.411.

For RRIRWRPPRLPRPRPRPVVLPRP, the “shrunken log2 fold change” value was -0.0385.

For the sequence RRIRMRPPRLPRPRPRPQSQPRP, the “shrunken log2 fold change” value was 0.226.

On to RRIRDRPPRLPRPRPRPAFRPRP, for which the “shrunken log2 fold change” value amounted to 0.293.

Turning to RRIRLRPPRLPRPRPRPQQMPRP, the “shrunken log2 fold change” value was -0.29.

As to RRIRWRPPRLPRPRPRPHETPRP, the “shrunken log2 fold change” value was found to be 0.126.

For RRIRKRPPRLPRPRPRPIRQPRP, the “shrunken log2 fold change” value stood at 0.0556.

With RRIRRRPPRLPRPRPRPVCIPRP, the “shrunken log2 fold change” value was 0.0361.

Consider RRIRGRPPRLPRPRPRPTLLPRP, for which the “shrunken log2 fold change” value is 0.884.

Turning to RRIRGRPPRLPRPRPRPSPVPRP, the “shrunken log2 fold change” value came to 0.585.

For the sequence RRIRYRPPRLPRPRPRPVEDPRP, the “shrunken log2 fold change” value was -0.0671.

In the case of RRIRDRPPRLPRPRPRPLSFPRP, the “shrunken log2 fold change” value was determined as 0.0422.

Take RRIRMRPPRLPRPRPRPIWFPRP: the “shrunken log2 fold change” value worked out at 0.1.

Take RRIRCRPPRLPRPRPRPHCCPRP: the “shrunken log2 fold change” value worked out at 0.0538.

RRIRQRPPRLPRPRPRPCFAPRP: the “shrunken log2 fold change” value worked out at 0.0874.

Consider RRIRYRPPRLPRPRPRPHPHPRP, for which the “shrunken log2 fold change” value is -0.744.

As to RRIRSRPPRLPRPRPRPEMDPRP, the “shrunken log2 fold change” value was -0.0847.

As to RRIRVRPPRLPRPRPRPAMNPRP, the “shrunken log2 fold change” value is -0.498.

With RRIRVRPPRLPRPRPRPQMWPRP, the “shrunken log2 fold change” value came out at 0.0478.

For RRIRERPPRLPRPRPRPWIWPRP, the “shrunken log2 fold change” value was determined as 0.164.

With RRIRGRPPRLPRPRPRPKWYPRP, the “shrunken log2 fold change” value is 0.806.

Turning to RRIRDRPPRLPRPRPRPHAVPRP, the “shrunken log2 fold change” value was determined as 0.163.

As to RRIRLRPPRLPRPRPRPSLAPRP, the “shrunken log2 fold change” value turned out to be 0.13.

For the sequence RRIRGRPPRLPRPRPRPDEIPRP, the “shrunken log2 fold change” value is -0.0447.

For RRIRQRPPRLPRPRPRPIYTPRP, the “shrunken log2 fold change” value turned out to be 0.036.

In the case of RRIRRRPPRLPRPRPRPMHTPRP, the “shrunken log2 fold change” value worked out at 0.322.

On to RRIRRRPPRLPRPRPRPNFVPRP, for which the “shrunken log2 fold change” value is -0.142.

As to RRIRARPPRLPRPRPRPGLSPRP, the “shrunken log2 fold change” value was determined as 0.821.

For the sequence RRIRRRPPRLPRPRPRPAICPRP, the “shrunken log2 fold change” value was 0.134.

Take RRIRMRPPRLPRPRPRPLVWPRP: the “shrunken log2 fold change” value amounted to 0.955.

Turning to RRIRMRPPRLPRPRPRPVGMPRP, the “shrunken log2 fold change” value was determined as 0.366.

For the sequence RRIRERPPRLPRPRPRPKRVPRP, the “shrunken log2 fold change” value was -0.0417.

As to RRIRMRPPRLPRPRPRPICEPRP, the “shrunken log2 fold change” value was determined as 0.241.

Turning to RRIRMRPPRLPRPRPRPDIWPRP, the “shrunken log2 fold change” value was 1.41.

In the case of RRIRGRPPRLPRPRPRPGQGPRP, the “shrunken log2 fold change” value was determined as 0.0965.

Consider RRIRYRPPRLPRPRPRPIAEPRP, for which the “shrunken log2 fold change” value worked out at 2.73.

RRIRPRPPRLPRPRPRPKHIPRP: the “shrunken log2 fold change” value was -0.301.

With RRIRVRPPRLPRPRPRPHAHPRP, the “shrunken log2 fold change” value is -0.256.

As for RRIRGRPPRLPRPRPRPRDLPRP, the “shrunken log2 fold change” value worked out at 0.473.

Turning to RRIRPRPPRLPRPRPRPKMDPRP, the “shrunken log2 fold change” value was determined as 0.0116.

As to RRIRCRPPRLPRPRPRPFFKPRP, the “shrunken log2 fold change” value is -0.197.

As to RRIRPRPPRLPRPRPRPMKAPRP, the “shrunken log2 fold change” value was 0.0531.

Regarding RRIRERPPRLPRPRPRPWWNPRP, the “shrunken log2 fold change” value is -0.0135.

With RRIRIRPPRLPRPRPRPEIWPRP, the “shrunken log2 fold change” value was -0.18.

As for RRIRERPPRLPRPRPRPVMNPRP, the “shrunken log2 fold change” value is -0.0808.

Take RRIRPRPPRLPRPRPRPHRSPRP: the “shrunken log2 fold change” value turned out to be 0.0256.

As for RRIRERPPRLPRPRPRPKMLPRP, the “shrunken log2 fold change” value is -0.0332.

In the case of RRIRSRPPRLPRPRPRPNMPPRP, the “shrunken log2 fold change” value was -0.278.

RRIRFRPPRLPRPRPRPLCVPRP: the “shrunken log2 fold change” value was -0.394.

For the sequence RRIRYRPPRLPRPRPRPVWCPRP, the “shrunken log2 fold change” value is -0.0399.

RRIRIRPPRLPRPRPRPPWHPRP: the “shrunken log2 fold change” value is -0.126.

In the case of RRIRYRPPRLPRPRPRPKNEPRP, the “shrunken log2 fold change” value was -0.372.

In the case of RRIRARPPRLPRPRPRPCHGPRP, the “shrunken log2 fold change” value was -0.214.

For the sequence RRIRCRPPRLPRPRPRPFNIPRP, the “shrunken log2 fold change” value was -0.436.

In the case of RRIRNRPPRLPRPRPRPKLAPRP, the “shrunken log2 fold change” value was determined as 0.0921.

As for RRIRHRPPRLPRPRPRPSKAPRP, the “shrunken log2 fold change” value was -0.463.

Consider RRIRIRPPRLPRPRPRPFEPPRP, for which the “shrunken log2 fold change” value was -0.204.

As for RRIRFRPPRLPRPRPRPKQTPRP, the “shrunken log2 fold change” value amounted to 1.01.

For the sequence RRIRARPPRLPRPRPRPATCPRP, the “shrunken log2 fold change” value stood at 0.03.

As to RRIRVRPPRLPRPRPRPECLPRP, the “shrunken log2 fold change” value was found to be 0.0466.

In the case of RRIRYRPPRLPRPRPRPVINPRP, the “shrunken log2 fold change” value was -0.338.

As for RRIRNRPPRLPRPRPRPGHCPRP, the “shrunken log2 fold change” value was -0.062.

Take RRIRNRPPRLPRPRPRPNLRPRP: the “shrunken log2 fold change” value is -0.325.

With RRIRMRPPRLPRPRPRPKVFPRP, the “shrunken log2 fold change” value amounted to 0.0743.

As for RRIRGRPPRLPRPRPRPCGHPRP, the “shrunken log2 fold change” value was determined as 0.666.

Turning to RRIRSRPPRLPRPRPRPNLNPRP, the “shrunken log2 fold change” value is -0.307.

With RRIRVRPPRLPRPRPRPWADPRP, the “shrunken log2 fold change” value was -0.0322.

RRIRLRPPRLPRPRPRPWSAPRP: the “shrunken log2 fold change” value amounted to 0.539.

Consider RRIRFRPPRLPRPRPRPPDAPRP, for which the “shrunken log2 fold change” value is 0.451.

Consider RRIRHRPPRLPRPRPRPEGKPRP, for which the “shrunken log2 fold change” value was determined as 0.082.

RRIRHRPPRLPRPRPRPCCAPRP: the “shrunken log2 fold change” value is -0.0125.

As to RRIRTRPPRLPRPRPRPNFWPRP, the “shrunken log2 fold change” value is 0.31.

In the case of RRIRQRPPRLPRPRPRPNIIPRP, the “shrunken log2 fold change” value is -0.247.

For RRIRERPPRLPRPRPRPTRPPRP, the “shrunken log2 fold change” value stood at 0.461.

As for RRIRHRPPRLPRPRPRPRFWPRP, the “shrunken log2 fold change” value turned out to be 0.112.

RRIRSRPPRLPRPRPRPWKPPRP: the “shrunken log2 fold change” value is -0.0117.

With RRIRNRPPRLPRPRPRPICYPRP, the “shrunken log2 fold change” value was -0.818.

On to RRIRERPPRLPRPRPRPMGAPRP, for which the “shrunken log2 fold change” value was determined as 0.0638.

On to RRIRRRPPRLPRPRPRPWIAPRP, for which the “shrunken log2 fold change” value is -0.00369.

Consider RRIRERPPRLPRPRPRPVWSPRP, for which the “shrunken log2 fold change” value stood at 0.158.

Consider RRIRDRPPRLPRPRPRPKISPRP, for which the “shrunken log2 fold change” value is -0.203.

As to RRIRFRPPRLPRPRPRPNNAPRP, the “shrunken log2 fold change” value was -0.271.

For RRIRFRPPRLPRPRPRPMDLPRP, the “shrunken log2 fold change” value was -0.161.

As to RRIRVRPPRLPRPRPRPREQPRP, the “shrunken log2 fold change” value was found to be 0.0561.

Regarding RRIRMRPPRLPRPRPRPMDFPRP, the “shrunken log2 fold change” value is -0.00448.

Consider RRIRRRPPRLPRPRPRPADMPRP, for which the “shrunken log2 fold change” value is -0.0139.

Regarding RRIRQRPPRLPRPRPRPQRKPRP, the “shrunken log2 fold change” value is -0.058.

RRIRARPPRLPRPRPRPNSSPRP: the “shrunken log2 fold change” value came out at 0.184.

RRIRIRPPRLPRPRPRPYLMPRP: the “shrunken log2 fold change” value was -0.143.

For RRIRRRPPRLPRPRPRPMYIPRP, the “shrunken log2 fold change” value was -0.73.

With RRIRFRPPRLPRPRPRPVASPRP, the “shrunken log2 fold change” value was found to be 0.0266.

With RRIRARPPRLPRPRPRPDNIPRP, the “shrunken log2 fold change” value was -0.256.

For RRIRRRPPRLPRPRPRPQRNPRP, the “shrunken log2 fold change” value stood at 0.245.

Take RRIRVRPPRLPRPRPRPAYFPRP: the “shrunken log2 fold change” value is -0.325.

For RRIRKRPPRLPRPRPRPGRKPRP, the “shrunken log2 fold change” value is 0.0872.

On to RRIRNRPPRLPRPRPRPIEAPRP, for which the “shrunken log2 fold change” value is 0.0895.

Take RRIRFRPPRLPRPRPRPYLYPRP: the “shrunken log2 fold change” value is -0.498.

With RRIRRRPPRLPRPRPRPFFYPRP, the “shrunken log2 fold change” value turned out to be 0.0607.

Regarding RRIRHRPPRLPRPRPRPQDVPRP, the “shrunken log2 fold change” value was 0.0527.

On to RRIRHRPPRLPRPRPRPNCEPRP, for which the “shrunken log2 fold change” value is -0.0369.

RRIRCRPPRLPRPRPRPTCIPRP: the “shrunken log2 fold change” value was -0.307.

Turning to RRIRIRPPRLPRPRPRPQGVPRP, the “shrunken log2 fold change” value is -0.0375.

Turning to RRIRWRPPRLPRPRPRPSVAPRP, the “shrunken log2 fold change” value worked out at 0.491.

RRIRERPPRLPRPRPRPDTNPRP: the “shrunken log2 fold change” value is -0.183.

Turning to RRIRKRPPRLPRPRPRPPPHPRP, the “shrunken log2 fold change” value was determined as 0.781.

In the case of RRIRKRPPRLPRPRPRPLCYPRP, the “shrunken log2 fold change” value is -0.213.

On to RRIRSRPPRLPRPRPRPNKMPRP, for which the “shrunken log2 fold change” value was -0.05.

For the sequence RRIRHRPPRLPRPRPRPCDSPRP, the “shrunken log2 fold change” value is -0.00145.
